What is called Aqueous solubility is the concentration that dissolves in the medium under given conditions. Read a low Aqueous solubility as little dissolved substance.

From patent US7173041B2, “Polyglutamic acid-camptothecin conjugates and methods of preparation” (priority 2000, dated 2007) come the findings set out here.

Entries after “also recorded” stand apart in the source; their conditions may differ. Where only a bound is given, the exact number is not on record here.

One data set relates to B16 melanoma (B-16-F0). Briefly: Tumor growth delay (TGD), subcutaneous B16 melanoma in C57BL/6 mice. In kind it is in vivo, murine. Conditions: for relative anti-tumor efficacy (comparison in words): B16 model. The protocol:
(§1) Tumors were produced in the […] of the right interscapular region by subcutaneously injecting 1.0×10^5 murine melanoma cells (B-16-F0; ATTC CRL-6322) in a volume of 0.2 ml PBS supplemented with 2% FBS. […] Camptothecin conjugates were dissolved in a 0.1 M Na2HPO4 solution by sonication at 45° C. for 45–60 minutes. Native camptothecins were dissolved in a mixture of 8.3% Cremophor EL/8.3% ethanol in 0.75% saline. All injections were given intraperitoneally (IP). Each treatment group consisted of 10 mice randomly allocated to each group. Tumor volume was calculated according to the formula (length×width×height)/2. Mice with tumors equal to or greater than 2000 mm^3 were euthenized by cervical dislocation. Tumor efficacy of test compounds was determined by calculating the tumor growth delay (TGD): the average time in days for the tumors in the treatment group to reach a fixed volume minus the average time for the tumors in the control group to reach the same volume. An unpaired Student's t-test was done to determine statistical differences. The compounds were tested at different concentrations to determine their MTD. The MTD is the maximum tolerated equivalent camptothecin dose.

A short description of data set [1]: Maximum tolerated dose (MTD) in mice. Conditions: for Murine single dose MTD (IP): mice, loadings as in Table 3. In kind it is in vivo. From the text: (§2) All injections were given intraperitoneally (IP). […] The MTD is the maximum tolerated equivalent camptothecin dose.
Data set [2] concerns HT-29 human colon carcinomas. As to the kind of experiment: Tumor growth delay, HT-29 xenografts in athymic ncr nu/nu mice. As to conditions: for TGD (days to 500 mm^3) HT-29: PG 50 kD. The protocol: as §1
(§3) In addition to the above-mentioned models, one other syngeneic model was used viz. LL/2 Lewis lung (ATTC CRL-1642) and 2 xenogeneic models were used viz. human NCI-H460 lung carcinomas (ATTC HTB-177) and HT-29 human colon carcinomas (ATTC HTB-38). In these xenogeneic models instead of immunocompetent C57BL/6 mice, immunocompromised athymic ncr nu/nu mice were used. Except for the number of tumor cells implanted to generate tumors the experimental protocol and procedures were identical to that for the B-16/F0 model.

A short description of data set [3]: Aqueous solubility of PG-camptothecin conjugates. Conditions: for Aqueous solubility: % CPT in conjugate (w/w): PG-CPT 14, PG-gly-CPT 37, PG-(10-OAc-CPT) 13, PG-(10-O-CPT) 13, PG-gly-(10-O-CPT) 20, PG-(10-OH-CPT) 19, PG-(9-NH-CPT) 14.
In another data set the test system is animal tumor models. As to the kind of experiment: General comparison of PG-camptothecin conjugates in animal tumor models. Details: species or system mice. Conditions: mouse, in vivo.
Description: as §2

The test system of data set [4] is NCI-H460 human non-small cell lung cancer xenografts. Briefly: NCI-H460 xenografts in female nude mice, dosing every 4th day x4. In kind it is in vivo. The protocol:
Female nude mice with 7–8 mm subcutaneous NCI-H460 human non-small cell lung cancer xenografts were treated with PG-gly-CPT on days 1, 5, 9, and 13 at a dose of 40 mg/kg 20(S)-camptothecin per injection. The tested dose of 40 mg eq. […] Although there were no deaths, weight loss was approximately 20% of the starting weight. The absolute tumor growth delay (defined as difference in days for tumors to grow from 8 mm to 12 mm between the treated and the control groups) was 43 days for the PG-gly-CPT treated mice.

Data set [5] relates to NCI-H1299 human lung cancer cells. As to the kind of experiment: NCI-H1299 human lung cancer s.c. in female nude mice. Conditions: 30 mg eq. 20(S)-camptothecin every 4th day x4.
Description: 20(S)-camptothecin/kg in the prior experiment in nude mice, the dose was lowered to 30 mg eq. 20(S)-camptothecin every 4th day×4.
The test system of data set [6] is NCI-H322 human lung cancer. As to the kind of experiment: NCI-H322 human lung cancer s.c. in female nude mice. In kind it is in vivo. As to conditions: 33 kD, 37% loaded, i.v. days 9, 13, 17, 21 at 40 mg/kg 20(S)-camptothecin equivalent. The protocol:
The antitumor activity of PG-gly-CPT (33 kD, 37% loaded) on NCI-H322 (ATTC CRL-5806) human lung cancer inoculated s.c. in female nude mice was studied. The drug was injected i.v. on days 9, 13, 17 and 21 at a 20(S)-camptothecin equivalent dose of 40 mg/kg when tumors measured 7–8 mm in diameter. The TGD was 40 days.

Data set [7] has as its system human NCI-H460 lung carcinomas. As to the kind of experiment: Tumor growth delay, NCI-H460 xenografts in athymic ncr nu/nu mice. As to conditions: PG 50 kD. It is filed as in vivo. The protocol: as §1, §3
Where [8] appears, read: Table 4, PG 50 kD (PG-CPT: 33 kD).
Where [9] appears, read: second experiment, i.p., same schedule.
Where [10] appears, read: CPT loading 19%, dose 33 mg CPT/kg.
Where [11] appears, read: CPT loading 33%, dose 38 mg CPT/kg.
The mark [12] stands for this setting: CPT loading 39%, dose 40 mg CPT/kg.
[13] abbreviates: CPT loading 47%, dose 40 mg CPT/kg.
The mark [14] stands for this setting: 40 mg eq. 20(S)-camptothecin/kg every 4th day x4.
[15] abbreviates: CPT loading 30%, dose 34 mg CPT/kg.

Consider PG-(2-O-acetyl)-CPT, for which, in the data set on B16 melanoma (B-16-F0) (CPT loading 15%, dose 80 mg CPT/kg, PG 50 kD), the “TGD (days to 500 mm^3) B16” value is reported as 3.8 days. Further, the MTD result in [1] (setting [8]) is recorded as “≧80 mg CPT/kg”.

Consider PG-(4-NH-butyryl)-CPT, for which, in the data set with B16 melanoma (B-16-F0) (CPT loading 32%, dose 80 mg CPT/kg, PG 50 kD), the “TGD (days to 500 mm^3) B16” value is recorded as 0.9 days. Further, the MTD entry in [1] (setting [8]) is “≧80 mg CPT/kg”.

As to PG-(4-O-butyryl)-CPT, in data set [2] (CPT loading 24%, dose 36 mg CPT/kg), the “TGD (days to 500 mm^3) HT-29” value is given as 13.1 days. Besides, the “TGD (days to 500 mm^3) B16” value in the data set on B16 melanoma (B-16-F0) (CPT loading 32%, dose 37 mg CPT/kg, PG 50 kD) stood at 2.8 days. Moreover, the MTD in [1] (setting [8]) was approximately 36 mg CPT/kg.

For the substance PG-(9-NH-CPT), in data set [3], the Aqueous solubility was determined as 7000 µg/mL. In the data set with animal tumor models, the “overall efficacy, tolerability and solubility (in words)” value was “active”. The MTD in data set [1] (mouse, in vivo) was > 25 mg eq. 20(S)-9-aminocamptothecin/kg. Moreover, the “Murine single dose MTD (IP)” value in [1] is more than 25 mg eq. CPT/kg.

The substance PG-(10-O-CPT) showed an Aqueous solubility in [3] of 10000 µg/mL. In addition, the “Murine single dose MTD (IP)” value in data set [1] came out at 50 mg eq. CPT/kg.

With PG-(10-OAc-CPT), in data set [3], the “aqueous solubility / solution behaviour (in words)” value is “solution was very viscous” and the Aqueous solubility was 10000 µg/mL. Moreover, in [3] (dosing solution), the “time after which the compound precipitated out of solution” value was “approx. 30 min”. Moreover, in the data set on B16 melanoma (B-16-F0) (50 mg eq. 20(S)-10-hydroxycamptothecin/kg, p<0.01 compared to control), the TGD was found to be 5.3 days. Besides, the “relative anti-tumor efficacy (comparison in words)” value (“relative anti-tumor efficacy” below) in the data set on B16 melanoma (B-16-F0) is given as “appeared more active at 50 mg eq. 20(S)-10-hydroxycamptothecin/kg than PG-gly-(10-O-CPT)”. For the same substance, the “Murine single dose MTD (IP)” value in data set [1] is on record as 10–20 mg eq. CPT/kg.

In [3], PG-(10-OH-CPT) displayed an Aqueous solubility of more than 10000 µg/mL. Also, in the data set with B16 melanoma (B-16-F0), the “relative anti-tumor efficacy” value was “not as effective as the PG-(10-OAc-CPT) or the PG-gly-(10-OH-CPT)”. The “Murine single dose MTD (IP)” value in [1] was more than 50 mg eq. CPT/kg.

For PG-(β-ala)-CPT, in the data set on B16 melanoma (B-16-F0) (CPT loading 31%, dose 67 mg CPT/kg, PG 50 kD), the “TGD (days to 500 mm^3) B16” value amounted to 1.1 days. In addition, in [1] (setting [8]), the MTD entry was “≧67 mg CPT/kg”.

Take PG-(γ-glu)-CPT: the “TGD (days to 500 mm^3) B16” value in the data set on B16 melanoma (B-16-F0) (CPT loading 21%, dose 54 mg CPT/kg, PG 50 kD) was 0.8 days. Further, the MTD entry in data set [1] (setting [8]) was “≧54 mg CPT/kg”.

Consider PG-CPT, for which, in data set [4] (setting [9]), the toxicity observations result is “without observable toxicity” and the “tumor growth delay” value was “substantial growth delay”. For the same substance, the “TGD (days to 500 mm^3) B16” value in the data set on B16 melanoma (B-16-F0) (CPT loading 20%, dose 80? mg CPT/kg, PG 33 kD) is on record as 4.0 days. The MTD entry in data set [1] (setting [8]) is listed as “≧80 mg CPT/kg”. Besides, in data set [1], the “Murine single dose MTD (IP)” value is listed as 60–80 mg eq. CPT/kg.

As to PG-ala-CPT, in the data set on B16 melanoma (B-16-F0) (CPT loading 20%, dose 73 mg CPT/kg, PG 50 kD), the “TGD (days to 500 mm^3) B16” value is listed as 2.2 days. For the same substance, the MTD entry in data set [1] (setting [8]) is “≧73 mg CPT/kg”.

PG-gly-(10-O-CPT) gave an Aqueous solubility in [3] of more than 10000 µg/mL.

As to PG-gly-(10-OH-CPT), the “relative anti-tumor efficacy” value with B16 melanoma (B-16-F0) is recorded as “approximately twice as efficacious as PG-gly-(7-Et-10-OH-CPT)”.

Regarding PG-gly-CPT, the figures for the TGD in [5] and in data set [6] were 32 days and 40 days, respectively. Also, the tolerability result in [5] is on record as “well-tolerated”. Moreover, the “TGD (days to 500 mm^3) HT-29” value in data set [2] (setting [10]) is on record as 4.1 days; in [2] (CPT loading 33%, dose 33 mg CPT/kg), 11.9 days; in data set [2] (setting [11]), 20.3 days; in data set [2] (setting [12]), 25.8 days; in [2] (setting [13]), 5.8 days. Moreover, in data set [2] (ip, 4 times with a weekly interval, total dose 3 times the single dose), the “tolerability of repeated dosing” value was “very well tolerated”. Moreover, the toxicity observations result in data set [4] (setting [14]) was “no deaths; also recorded: modestly exceeded the MTD”. Further, the “weight loss, of the starting weight” value in data set [4] (setting [14]) was “approximately 20%”. Further, the “absolute tumor growth delay (tumors to grow from 8 mm to 12 mm, treated vs control)” value in data set [4] (40 mg/kg 20(S)-camptothecin per injection, days 1, 5, 9, 13) amounted to 43 days. Moreover, the “TGD (days to 500 mm^3) B16” value in the data set on B16 melanoma (B-16-F0) (CPT loading 32%, dose 35 mg CPT/kg, PG 50 kD) is 3.3 days. The “MTD in male ncr nu/nu mice” value in [1] (PG 50 kD, (mono) glycine linker, 35–37% 20(S)-camptothecin) is recorded as 40 mg/kg 20(S)-camptothecin equivalents. This substance also displayed an MTD in [1] (setting [8]) of approximately 40 mg CPT/kg. Moreover, the “Murine single dose MTD (IP)” value in [1] is on record as 60–80 mg eq. CPT/kg. The “TGD (days to 500 mm^3) NCI-H460” value in [7] (setting [11]) amounted to 15.8 days; in [7] (setting [12]), 38.5 days; in data set [7] (setting [13]), 6.5 days.

For PG-gly-gly-CPT, in [2] (setting [10]), the “TGD (days to 500 mm^3) HT-29” value came out at 4.5 days. In [1] (setting [8]), the MTD result is on record as “≧33 mg CPT/kg”.

Consider PG-gly-gly-gly-CPT, for which the “TGD (days to 500 mm^3) HT-29” value in data set [2] (setting [10]) was determined as 6.9 days; in [2] (setting [15]), 28.4 days. The MTD entry in data set [1] (setting [8]) is given as “≦34 mg CPT/kg”. For the same substance, the “TGD (days to 500 mm^3) NCI-H460” value in data set [7] (setting [15]) is 38.5 days.
